Measurements as given in patent US20170204454A1 (THERMO FISHER SCIENTIFIC BALTICS UAB, published 2017).

Columns and labels:
[1] = molecular target: T1, Pyrococcus DNA polymerase with a sequence non-specific DNA binding domain (Pyrococcus); assay: cell-based or functional assay
T1 chain: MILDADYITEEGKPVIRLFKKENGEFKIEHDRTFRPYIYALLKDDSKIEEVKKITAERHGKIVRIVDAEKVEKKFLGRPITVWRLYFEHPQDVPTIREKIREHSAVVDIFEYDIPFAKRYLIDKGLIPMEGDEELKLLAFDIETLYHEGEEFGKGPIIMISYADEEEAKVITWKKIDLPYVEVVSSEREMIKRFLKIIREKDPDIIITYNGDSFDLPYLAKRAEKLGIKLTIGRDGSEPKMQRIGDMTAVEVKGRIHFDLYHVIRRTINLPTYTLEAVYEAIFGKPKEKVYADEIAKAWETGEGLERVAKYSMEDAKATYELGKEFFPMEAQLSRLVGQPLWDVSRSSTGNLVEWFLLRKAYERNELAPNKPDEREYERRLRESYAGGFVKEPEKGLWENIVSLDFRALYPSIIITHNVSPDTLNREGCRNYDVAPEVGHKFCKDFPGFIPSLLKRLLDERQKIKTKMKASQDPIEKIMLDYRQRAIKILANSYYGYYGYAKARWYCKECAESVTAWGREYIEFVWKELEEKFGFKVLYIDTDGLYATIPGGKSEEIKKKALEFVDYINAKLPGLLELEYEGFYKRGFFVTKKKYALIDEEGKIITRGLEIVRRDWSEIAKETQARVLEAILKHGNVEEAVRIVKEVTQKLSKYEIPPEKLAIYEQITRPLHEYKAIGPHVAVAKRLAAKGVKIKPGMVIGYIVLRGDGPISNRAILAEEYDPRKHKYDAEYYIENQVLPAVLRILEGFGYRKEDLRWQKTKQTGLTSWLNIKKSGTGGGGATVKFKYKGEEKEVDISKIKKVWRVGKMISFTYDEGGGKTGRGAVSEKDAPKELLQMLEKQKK

[2] = molecular target: T1, Pyrococcus DNA polymerase with a …; assay: indirect ELISA, apparent dissociation constant
Protocol: The affinity of monoclonal antibodies was determined by measuring their apparent dissociation constants (kD) by an indirect ELISA (Table 2).

B1: 5D3 (antibody, V domains shown)
VH: SGPGLVAPSQSLSITCTVSGFSLTDYGVSWVRQSPGQGLEWLGIIWGDGSTDYHSSLISRLRISKDNSKSQVFLKLNSLQTDDTATYYCARPVIGNYAMDYWGQG
VL: TQSPASLAVSLGQRATISCRASESVEYYGTRLMQWYQQKPGKAPKLLIYGASNVESGVPARFSGSGSGTDFSLNIHPVEEDDFAMYFCQQSRKVPWTFGGG
notes: also called 5D3 antibody
**Q.** Which “Inhibition of exonuclease activity” value [1] does the source give for B1 here?
**A.** 71 molar ratio enzyme:antibody (1:x)

**Q.** And the “Inhibition of polymerase activity” value [1]?
**A.** 20 molar ratio enzyme:antibody (1:x)

**Q.** And the Kd [2]?
**A.** 0.29 nM
